From PMC8263008, “Inhibition of Fibrinolysis by Streptococcal Phage LysinSM1” (mBio, 2021)

Columns and labels:
[1] = target: purified human fibrinogen (human) (UniProt P02671); assay: ELISA; competition: immobilised fibrinogen (0.1 μM), 0 to 100 μM lysinSM1, lysin102-198 or lysin1-102, and 100 nM plasminogen; bound plasminogen detected with anti-plasminogen antibody
[2] = target: purified human fibrinogen (human) (UniProt P02671); assay: SPR; Reichert-4 SR7500DC; human fibrinogen (0.1 μM, sodium acetate pH 5.5) covalently immobilised on a PEG gold chip; analytes in PBS, 30 μl/min, 3 min association and dissociation; KD from response at equilibrium against concentration
[3] = target: MalE-fibrinogen Aα534-610 (variant 8) (human); assay: SPR; lysinSM1, lysin102-198 or plasminogen on recombinant variant 8 (Aα534-610); otherwise as for fibrinogen
[4] = target: MalE-fibrinogen Aα534-610 (variant 8) (human); assay: ELISA; fibrinogen Aα variants (0.1 μM in PBS) immobilised in 96-well plates; FLAG-lysin or plasminogen in PBS-T over a range of concentrations, 1 h 37°C; anti-FLAG or anti-plasminogen; non-linear regression, apparent KD
[5] = target: T1, purified human fibrinogen (human, UniProt P02671 36-866; P02675 45-491; P02679 27-453, plasma fibrinogen hexamer (AαBβγ)2, 29 disulfides, glycosylated; fibrinopeptides A and B present; Aα taken as the circulating 610-residue form, Bβ starts at pyroGlu, γ as the major γA form (411 aa)); assay: SPR; Reichert-4 SR7500DC; human fibrinogen (0.1 μM, sodium acetate pH 5.5) covalently immobilised on a PEG gold chip; analytes in PBS, 30 μl/min, 3 min association and dissociation; KD from response at equilibrium against concentration; conditions: both partners purified
[6] = target: MalE-fibrinogen Aα248-376 (variant 5) (human); assay: ELISA; fibrinogen Aα variants (0.1 μM in PBS) immobilised in 96-well plates; FLAG-lysin or plasminogen in PBS-T over a range of concentrations, 1 h 37°C; anti-FLAG or anti-plasminogen; non-linear regression, apparent KD
[7] = target: T1, purified human fibrinogen; assay: SPR; plasminogen (100 nM) over immobilised fibrinogen after PBS, and again after bound lysinSM1 was removed with glycine buffer pH 2.0; conditions: both partners purified

Sequence of purified human fibrinogen (human) (P02671 36-866, chain 1 of 3): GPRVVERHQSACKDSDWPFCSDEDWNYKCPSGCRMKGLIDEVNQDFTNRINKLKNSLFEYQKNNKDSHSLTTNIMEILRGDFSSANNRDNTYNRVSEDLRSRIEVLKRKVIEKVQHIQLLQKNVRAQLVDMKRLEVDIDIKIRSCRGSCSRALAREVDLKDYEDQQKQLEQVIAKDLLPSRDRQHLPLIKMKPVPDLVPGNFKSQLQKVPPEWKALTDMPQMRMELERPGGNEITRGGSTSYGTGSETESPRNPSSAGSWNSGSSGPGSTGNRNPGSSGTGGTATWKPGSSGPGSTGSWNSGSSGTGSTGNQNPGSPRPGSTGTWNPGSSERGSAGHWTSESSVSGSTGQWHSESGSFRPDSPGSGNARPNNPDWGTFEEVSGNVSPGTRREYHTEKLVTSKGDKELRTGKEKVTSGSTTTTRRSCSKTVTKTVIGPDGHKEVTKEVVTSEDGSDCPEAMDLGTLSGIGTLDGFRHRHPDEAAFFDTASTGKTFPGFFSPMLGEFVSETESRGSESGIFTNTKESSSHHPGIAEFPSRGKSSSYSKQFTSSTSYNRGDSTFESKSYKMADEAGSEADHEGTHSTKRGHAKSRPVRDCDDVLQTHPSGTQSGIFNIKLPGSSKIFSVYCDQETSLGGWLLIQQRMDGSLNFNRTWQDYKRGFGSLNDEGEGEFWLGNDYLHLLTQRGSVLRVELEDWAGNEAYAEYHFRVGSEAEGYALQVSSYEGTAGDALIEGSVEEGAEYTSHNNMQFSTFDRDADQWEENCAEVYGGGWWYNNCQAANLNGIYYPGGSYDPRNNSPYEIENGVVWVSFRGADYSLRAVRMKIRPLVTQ
Sequence of purified human fibrinogen (human) (P02675 45-491, chain 2 of 3, further chain): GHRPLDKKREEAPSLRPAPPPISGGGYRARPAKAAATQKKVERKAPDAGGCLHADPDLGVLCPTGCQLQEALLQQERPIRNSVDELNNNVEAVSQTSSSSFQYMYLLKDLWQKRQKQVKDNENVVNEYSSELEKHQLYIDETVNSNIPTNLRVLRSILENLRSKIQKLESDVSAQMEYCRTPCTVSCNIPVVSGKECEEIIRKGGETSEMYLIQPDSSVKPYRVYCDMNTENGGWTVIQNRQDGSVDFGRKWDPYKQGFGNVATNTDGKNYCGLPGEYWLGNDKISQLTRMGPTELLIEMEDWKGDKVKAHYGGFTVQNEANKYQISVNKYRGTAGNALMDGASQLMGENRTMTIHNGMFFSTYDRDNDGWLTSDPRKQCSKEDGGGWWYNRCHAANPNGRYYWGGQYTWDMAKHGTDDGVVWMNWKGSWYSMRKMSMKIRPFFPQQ
Sequence of purified human fibrinogen (human) (P02679 27-453, chain 3 of 3, further chain): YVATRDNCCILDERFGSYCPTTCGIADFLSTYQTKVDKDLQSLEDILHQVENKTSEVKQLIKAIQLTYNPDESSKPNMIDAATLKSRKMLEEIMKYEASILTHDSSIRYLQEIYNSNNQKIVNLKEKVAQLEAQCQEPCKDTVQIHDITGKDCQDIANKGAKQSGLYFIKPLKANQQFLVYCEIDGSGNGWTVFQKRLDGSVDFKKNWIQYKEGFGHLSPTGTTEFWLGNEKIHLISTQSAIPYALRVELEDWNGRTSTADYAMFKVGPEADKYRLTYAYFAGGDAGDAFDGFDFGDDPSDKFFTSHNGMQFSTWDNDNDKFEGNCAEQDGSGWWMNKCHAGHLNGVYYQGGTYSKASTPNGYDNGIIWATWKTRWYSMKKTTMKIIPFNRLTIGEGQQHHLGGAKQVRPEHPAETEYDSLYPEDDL
T1 sequence (P02671 36-866, chain 1 of 3): as the sequence (P02671 36-866, chain 1 of 3) above
T1 sequence (P02675 45-491, chain 2 of 3): as the sequence (P02675 45-491, chain 2 of 3, further chain) above
T1 sequence (P02679 27-453, chain 3 of 3): as the sequence (P02679 27-453, chain 3 of 3, further chain) above

recombinant FLAG-tagged lysinSM1 (natural protein)
percent inhibition of plasminogen binding to immobilised fibrinogen [1]: > 75% | Kd [2]: 31.5 µM | Kd [3]: 32.3 µM

FLAG-tagged lysin102-198 (domain or fragment)
Kd [4]: 48 µM | percent inhibition of plasminogen binding to immobilised fibrinogen [1]: > 75% | Kd [2]: 23.2 µM | Kd [3]: 17.3 µM

B1: human plasminogen (natural protein, UniProt P00747 20-810, looked up)
chain: EPLDDYVNTQGASLFSVTKKQLGAGSIEECAAKCEEDEEFTCRAFQYHSKEQQCVIMAENRKSSIIIRMRDVVLFEKKVYLSECKTGNGKNYRGTMSKTKNGITCQKWSSTSPHRPRFSPATHPSEGLEENYCRNPDNDPQGPWCYTTDPEKRYDYCDILECEEECMHCSGENYDGKISKTMSGLECQAWDSQSPHAHGYIPSKFPNKNLKKNYCRNPDRELRPWCFTTDPNKRWELCDIPRCTTPPPSSGPTYQCLKGTGENYRGNVAVTVSGHTCQHWSAQTPHTHNRTPENFPCKNLDENYCRNPDGKRAPWCHTTNSQVRWEYCKIPSCDSSPVSTEQLAPTAPPELTPVVQDCYHGDGQSYRGTSSTTTTGKKCQSWSSMTPHRHQKTPENYPNAGLTMNYCRNPDADKGPWCFTTDPSVRWEYCNLKKCSGTEASVVAPPPVVLLPDVETPSEEDCMFGNGKGYRGKRATTVTGTPCQDWAAQEPHRHSIFTPETNPRAGLEKNYCRNPDGDVGGPWCYTTNPRKLYDYCDVPQCAAPSFDCGKPQVEPKKCPGRVVGGCVAHPHSWPWQVSLRTRFGMHFCGGTLISPEWVLTAAHCLEKSPRPSSYKVILGAHQEVNLEPHVQEIEVSRLFLEPTRKDIALLKLSSPAVITDKVIPACLPSPNYVVADRTECFITGWGETQGTFGAGLLKEAQLPVIENKVCNRYEFLNGRVQSTELCAGHLAGGTDSCQGDSGGPLVCFEKDKYILQGVTSWGLGCARPNKPGVYVRVSRFVTWIEGVMRNN
notes: plasminogen, human; also called purified plasminogen; recombinant human plasminogen
Kd [5]: 10.4 µM | Kd [4]: 18 µM | Kd [6]: 85 µM | KD after bound lysinSM1 was removed with glycine buffer pH 2.0 [7]: 1.68e-05 M | Kd [7]: 19.2 µM | Kd [3]: 17.2 µM
